# In the nanobody polyreactivity screen of Harvey et al. (2022):
# Experiment: yeast display, Sf9 membrane polyspecificity reagent, FACS + sequencing; frameworks hold sequencing errors
# Procedure, shortened: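 Using colony PCR, genes from sorted yeast display clones were amplified, then sequenced on MiSeq at 2 × 250 and filtered by CDR length. The clones had been stained with 10% biotinylated, detergent-solubilized Sf9 membrane reagent for 1 hour at 4 °C and sorted by FACS into low and high (top ~1%) gates on anti-HA and streptavidin fluorescence. Polyreactivity labels come from the gate of origin.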
row,Sequence,polyreactivity (PSR sort gate)
1,QVQLVESGGGLVQAGGSLRLSCAASGGTFERNAMGWYRPAPGKERELVAAITGSGGRTYYADSVKGRFTISRDNAKNTVYLQMNSLKPEDTAVYYCAAVPWWKYNYWGQGTQVTVSS,high polyreactivity
2,QVQLVESGGGLVQAGGSLRLSCAASGGTFEYNAMGWYRPAPGKERELVAAISKSGGRTYYADSVKGRFTISRDNAKNTVYLQMNSLKPEDTAVYYCAKRYVWGQGTQVTVSS,high polyreactivity
3,QVQLVESGGGLVQAGGSLRLSCAASGGTFFYNAMGRYRQAPGKERELVAAINGGTSTNYADSVKGRFTISRDNAKNTVYLQMNSLKPEDTAVYYCAAVYRRLGRYDWYDYWGQGTQVTVSS,low polyreactivity
4,QVQLVESGGGLVQAGGSLRLSCAASGGTFGRNVMGWYRQAPGKERELVAAISIRGGSTYYADSVKGRCTISRDNAKNTVYLQMNSLKAEDTAVYYCARDYPTDAYDYWGQGTQVTVSS,low polyreactivity
5,QVQLVESGGGLVQAGGSLRLSCAASGGTFGRYAMGWYRQAPGKERELVADINWSGGGTYYADSVKGRFTISRDNAKNTVYLQMNSLKPEDTAVYYCGARVVEIFHWAGDYWGQGTQVTVSS,low polyreactivity
6,QVQLVESGGGLVQAGGSLRLSCAASGGTFHHYAMGWYRQAPGKERELVASITNGASTYYADSVKGRFTISRDNAKNTVYLQMNSLKPEDTAVYYCAKRCRVGKYRYEYWGQGTQVTVSS,low polyreactivity
7,QVQLVESGGGLVQAGGSLRLSCAASGGTFHYYAMGWYRQAPGKERELVAAINRSGDSTYYADSVKGRFTISRDNAKNTVYLQMNSLKPEDTAVFYCAVSYYGADGNPFPHDYWGQGTQVTVSS,low polyreactivity
8,QVQLVESGGGLVQAGGSLRLSCAASGGTFIANAMGWYRPAPGKERELVAAITSRGGNTYYADSVKGRFTISRDNAKNTVYLQMNSLKPEDTSVYYCAARNDKRRQYYVGQSAFDFWGQGTQVTVSS,low polyreactivity
9,QVQLVESGGGLVQAGGSLRLSCAASGGTFKTNAMGWYRQAPGTERELVAAIRYSGGDTYYADSVKGRFTISRDNAKNTVYLLLKSLKPEDTAVYYCAADFTLLYDYWGQGTQVTVSS,low polyreactivity
10,QVQLVESGGGLVQAGGSLRLSCAASGGTFKYYDMGWYRQAPGKEREFVAAISKRVSSTYYADSVKGRFTISRDNAKNTVYLQMNSLKPEDTAVYYCAAYPVRYYNQYDYWGQGTQVTVSS,low polyreactivity
11,QVQLVESGGGLVQAGGSLRLSCAASGGTFLYYMGWYRQAPGKERELVAAITFSGGSTYYADSVKGRFTISRDNAKNTVYLQMNSLKPEDTAVYYCAAGWYDWPKYLLSVYTYYLYDSWGQGTQVTVSS,low polyreactivity
12,QVQLVESGGGLVQAGGSLRLSCAASGGTFMYYDMGWYRQAPGKERELVAAISSGSSTYYADSVKGRFTISRDNAKNTVYLQMNRLKQEDTAVYYCAKLHYAHYWGQGTQVTVSS,low polyreactivity
13,QVQLVESGGGLVQAGGSLRLSCAASGGTFNAYAMGWYRQAPGKERELVATISYSGGSTYYADSVKGRFTISRDNAKNTVYLQMNSLKPEDTAVYYCAKVRYYPYSPGGLDYWGQGTQVTVSS,low polyreactivity
14,QVQLVESGGGLVQAGGSLRLSCAASGGTFPFYAMGWYRQAPGKERELVAAITFTTSSTYYADSVKGRFTISRDNAKNTVYLQMNSLKPEDTAVYYCAVDYGWYSSYYREYDYWGQGTQVTVSS,low polyreactivity
15,QVQLVESGGGLVQAGGSLRLSCAASGGTFPLYAMGWYRQAPGKARELVAAIRWSGGRTYYADSVKGRFTISRDNAMKTVYLQMNSLKPEDTAVYYCAADYDDGWGYDYWGQGTQVTVSS,high polyreactivity
16,QVQLVESGGGLVQAGGSLRLSCAASGGTFPSNAMGWYRQAPGQERELVAAITGSSDTTYYADSVKGRFTISRDNAKNTVYLQMNSLKPEDTAVYYCAADTPRDTNRYEYWGQGTQVTVSS,low polyreactivity
17,QVQLVESGGGLVQAGGSLRLSCAASGGTFPVYAMGWYRQAPGKERELVAAISYSGVTTYYADSVKGRFTISRDNAKNTVYLQMNSLKPEDTAVYYCNADWRRWYIFSYDYWGQGTQVTVSS,low polyreactivity
18,QVQLVESGGGLVQAGGSLRLSCAASGGTFPYNAMGWYRQAPGTERELVAVITSGDGTYYADSVKGRFTNSRDNAKNTVYLQMNSLKPEDTAVDYCAAVIFWDVPYDYWGQGTQVTVSS,low polyreactivity
19,QVQLVESGGGLVQAGGSLRLSCAASGGTFRAYAMGWYRQAPGKEREFVAAITWSGGRTYYADSVKGRFTISRDNANNTVYLQMNSLKPEDTEVYYCATDQGHYYHAEHDYWGQGTKVTVSS,low polyreactivity
20,QVQLVESGGGLVQAGGSLRLSCAASGGTFRGYVMGWYIQAPGKERELVAAISYSGGTTYYADSVKGRFTISRDNAKNTVYLQMNSLKPEDTAVYYCNKGYRRYEDGATPGYGYWGQGTQVTVSS,high polyreactivity
21,QVQLVESGGGLVQAGGSLRLSCAASGGTFRPNAMGWYRQAPGKERELVAAITRSGGSTYYADSVKGRFTISRDNAKNTVYLQMNSLKPEDTAVYYCARDLREWGQGTQVTVSS,low polyreactivity
22,QVQLVESGGGLVQAGGSLRLSCAASGGTFRSNAMGWYRQAPGKERELVAAISKRGGSTHYADSVKGRFTISRDNSKNTVYLQMNSLKPEDTAVYYCNTYGWQEGDYWGQGTQVTVSS,high polyreactivity

row,Sequence,polyreactivity (PSR sort gate)
1,QVQLVESGGGLVQAGGSLRLSCAASGGTFRTYTMGWYRQAPGKERELVAAINFRGGSTYYADSVKGRFTISRDNAKNTVYLQMNSLKPEDTAVYYCATPLQQEGDWGQGTQVTVSS,high polyreactivity
2,QVQLVESGGGLVQAGGSLRLSCAASGGTFSFNAMGWSRQAPGKEREVVAAITSDDGTNDADSVKGRFTISRDNAKNTVYLQMNSLKPEDTAVDYCAAESRFEGWGQGTQVTVSS,low polyreactivity
3,QVQLVESGGGLVQAGGSLRLSCAASGGTFSKYAMGWYRQAPGKEREFVAAITVSGGGTYYADSVKGRFTISRDNAKNTVYLQMNSLKPEDTAVYYCAADLAWTASDYWGQGTQVTVSS,low polyreactivity
4,QVQLVESGGGLVQAGGSLRLSCAASGGTFSPYAMGWYRQAPGKERELVAVIRSDVTTNYADSVKGRFTISRDNAKNTVYLQMNSLKPEDTAVYYCNVERHRVWDYQWREEDDYWGQGTQVTVSS,low polyreactivity
5,QVQLVESGGGLVQAGGSLRLSCAASGGTFSQYAMGWYRQAPGKERELVATISYSGTSTYYADSVKGRFTISRDNEKNTVYLHMNSLKPEDTAVYDCNIRWRWYRSDYYSWGQGTQVTVSS,high polyreactivity
6,QVQLVESGGGLVQAGGSLRLSCAASGGTFSRNVMGWYRQAPGTERELVAAISFSGGTTYYADSVKGRFTISRDNAKNTVYLQMISLKPEDTAVYYCAARPVNTVRPFDYWGQGTQVTVSS,high polyreactivity
7,QVQLVESGGGLVQAGGSLRLSCAASGGTFSYYAMGWYRQAPGKGELVAAISSGGSTNYADSVKGRFTISRDNAKNTVYLQMNSLKPEDTAVYFCAARYRFWGPYNYWGQGTQVTVSS,high polyreactivity
8,QVQLVESGGGLVQAGGSLRLSCAASGGTFSYYAMGWYRQARGKERELDAAISGNGDTTYYADSVKGRFTISRDNAKNTVYLQMNSLKPEDTAVYYCAADGWGFIVGIDYYPYGEGDYWGQGTQVTVSS,low polyreactivity
9,QVQLVESGGGLVQAGGSLRLSCAASGGTFTYSPMGWDREATGTERELVAAITDGGSTYYAVSVKGRFTISRDNAKTTFYLQMNSLKPEDTAVYYCAVRVRHNSKNTFFPYSYGYWGQGTQVTVSS,low polyreactivity
10,QVQLVESGGGLVQAGGSLRLSCAASGGTFVGNAMGWYRQAPGKERELVAAISTNSGSTYYADSVKGRFTISRDNAKNTVYLQMNSLKPEDPAVYYCATRNSSKRRGYYYWGQGTQVTVSS,high polyreactivity
11,QVQLVESGGGLVQAGGSLRLSCAASGGTFVHYTMGWYRPAPGKERELVASIRRGGSTNYADSVKGRFTISRDNAKNTVYLQMNSLKPEDTAVYYCAKRVQHYRYYYWGQGSQVTVSS,low polyreactivity
12,QVQLVESGGGLVQAGGSLRLSCAASGGTFVVYAMGWYRQAPGKERELVAAITWIGDSTYYADSVKGRFTISRDNAKNTVYLQMNSLKPEDTAVHYCNAEGWYYLTEYGYWGQGTQVTVSS,low polyreactivity
13,QVQLVESGGGLVQAGGSLRLSCAASGGTFWAYTMGWYRQAPGKERELVATISFGTGNTYYADSVKGRFTISRDNAKNTVYLQMNSLKPEDTAVYYCAAQWPELTRSYVTVEVEYWGQGTQVTVSS,low polyreactivity
14,QVQLVESGGGLVQAGGSLRLSCAASGGTFWTNAMGWYRQAPGKERELVARITSGGGTNYADSVKGRFTISRDNAKNTVYVQMNSRKPEDTAVYYCAAETIYYPVAQSYYSFEYWGQGTQVTVSS,low polyreactivity
15,QVQLVESGGGLVQAGGSLRLSCAASGGTFWVYAMGWYRQAPGKERELVAAIRWRGGRTYYADSVKGRFTISRDNAKNTVYLQMNSLKPEDTAVYYCAATTWRSGRYNYWGQGTQVTVSA,high polyreactivity
16,QVQLVESGGGLVQAGGSLRLSCAASGGTFWVYAMGWYRQAPGKERELVAAIRWRGGRTYYADSVKGRFTISRDNAKNTVYLQMNSLKPEDTEVYYCAATTWRSGRYNYWGQGTQVTVSS,high polyreactivity
17,QVQLVESGGGLVQAGGSLRLSCAASGGTFWWYTMGWYRQAPGKERELVATITRGGSTNYADSVKGRFTISRDNAKNTVYLQMNSLKPEDTAVYYCAKRYRPYYSTYDYWGQGTQVTVSS,high polyreactivity
18,QVQLVESGGGLVQAGGSLRLSCAASGGTFYRYAMGWYRQAPGIERELVAAISGGRGRTYYADSVKGRFTISRDNAKNTVYLQMNSLKPVDTAVYYCSNKPYGAVSGSDYDYWGQGTQVTVSS,high polyreactivity
19,QVQLVESGGGLVQAGGSLRLSCAASGGTFYSYAMGWYRQAPGKEREFVAAITYGGGSTYYADSEKGRFTISRDNAKNSVYLQKNSLKPEDTAVYYCNARRYGSRLGERYYYWGQGTQVTVSS,high polyreactivity
20,QVQLVESGGGLVQAGGSLRLSCAASGGTIISYAMGWYRQAPRKERELVAAISRGGSSTYYADSVKGRFTISRDNAKNTVYLQMNSLKPEDTAVYYCVQLTRSGPDLDSWGQGTQVTVSS,high polyreactivity
21,QVQLVESGGGLVQAGGSLRLSCAASGGTIVWNAMGWNRQAPGKEREFVAAITSSGGSTYYADSVKGRFTISRDNAKNSVYLQMNSLKPEDTAVYYCNVDTHSSYEFNSWGQGTQVTVSS,low polyreactivity
